Residue numbers refer to the chain shown, from its start.
T1: human CDH6 (full-length, on cells) (human, UniProt P55285 54-790)
T1 construct: also called hCDH6; full-length hCDH6
T1 sequence: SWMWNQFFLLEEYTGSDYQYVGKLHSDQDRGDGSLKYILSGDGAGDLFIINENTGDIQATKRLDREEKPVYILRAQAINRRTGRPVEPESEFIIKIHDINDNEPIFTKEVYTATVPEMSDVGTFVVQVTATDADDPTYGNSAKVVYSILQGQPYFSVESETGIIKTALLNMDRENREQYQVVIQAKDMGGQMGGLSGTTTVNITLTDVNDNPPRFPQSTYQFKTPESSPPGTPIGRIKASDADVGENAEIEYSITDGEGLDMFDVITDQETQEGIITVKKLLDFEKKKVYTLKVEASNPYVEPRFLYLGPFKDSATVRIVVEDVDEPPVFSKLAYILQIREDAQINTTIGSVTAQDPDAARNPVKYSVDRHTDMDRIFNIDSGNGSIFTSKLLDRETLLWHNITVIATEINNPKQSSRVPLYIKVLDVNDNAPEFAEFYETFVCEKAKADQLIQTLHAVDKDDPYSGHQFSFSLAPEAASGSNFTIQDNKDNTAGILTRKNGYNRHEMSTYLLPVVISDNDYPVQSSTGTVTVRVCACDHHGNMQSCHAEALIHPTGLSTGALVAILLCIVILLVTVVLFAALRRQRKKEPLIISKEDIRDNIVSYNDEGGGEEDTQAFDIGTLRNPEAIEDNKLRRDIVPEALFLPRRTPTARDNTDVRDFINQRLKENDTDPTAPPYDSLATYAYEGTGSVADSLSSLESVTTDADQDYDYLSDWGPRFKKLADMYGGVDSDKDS

T2: Recombinant Human CDH6 Fc His chimera (R&D Systems, Inc.) (human, UniProt P55285 54-615)
T2 construct: Bought product; also called the antigen; human CDH6 antigen
T2 sequence: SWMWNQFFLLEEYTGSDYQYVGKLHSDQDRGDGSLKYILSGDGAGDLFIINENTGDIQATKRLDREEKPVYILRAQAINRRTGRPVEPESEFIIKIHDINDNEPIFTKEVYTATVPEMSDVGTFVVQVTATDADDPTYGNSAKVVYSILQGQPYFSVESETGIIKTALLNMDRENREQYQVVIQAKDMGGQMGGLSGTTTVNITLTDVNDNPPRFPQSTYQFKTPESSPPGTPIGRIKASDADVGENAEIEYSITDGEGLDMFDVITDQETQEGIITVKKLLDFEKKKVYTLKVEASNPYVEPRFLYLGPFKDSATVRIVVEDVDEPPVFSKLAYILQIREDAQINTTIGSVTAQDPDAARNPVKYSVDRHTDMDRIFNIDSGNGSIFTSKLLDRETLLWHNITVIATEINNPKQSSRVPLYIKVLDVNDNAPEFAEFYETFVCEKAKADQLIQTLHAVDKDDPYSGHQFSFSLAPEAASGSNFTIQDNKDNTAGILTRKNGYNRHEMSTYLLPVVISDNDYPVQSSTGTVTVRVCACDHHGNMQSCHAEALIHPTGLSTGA

B1: rG055 antibody (antibody, V domains shown)
VH: EVQLQESGPGLVRPSQSLSLSCSVTDYSITSNYWGWIRRFPGNKMEWMGYITYSGYTSYNPSLQSRISITRDTSKNQFFLQLNSVTAEDTATYYCARSINHGGYSYVVDAWGPGASVTVSS
VL: DVQMTHSPSYLAASPGESVSISCKTSKNISNYLVWYQQKPGEAYKLLIYSGSTLQSGTPSRFSGSGSGTDFTLTIRSLEPEDFGLYFCQQYYEKPFTFGSGTKLEIKR
notes: Rat monoclonal purified from hybridoma; also called rat anti-CDH6 monoclonal antibody clone rG055
B2: rG061 antibody (antibody, V domains shown)
VH: EVQLQESGPGLVKPSQSLSLTCSVTGYSITTYYWGWIRKFPGNKMEWMGYISYSGRTSYNPSLKSRMSITRDASKNQFFLQLNSVTTDDTATYYCARSPINHGGYWYFDFWGPGTMVTVSS
VL: B1 VL with H6Q, T25A, S26T, N28S, V34A, L46V, F87S, F96L
notes: Rat monoclonal purified from hybridoma; also called rat anti-CDH6 monoclonal antibody clone rG061
B3: H02L02 antibody (antibody, human IgG1, kappa, V domains shown)
VH: EVQLVQSGAEVKKPGASVKVSCKASGYTFTRNFMHWVRQAPGQGLEWMGWIYPGDGETEYNQKFQGRVTITADRSTSTAYMELSSLRSEDTAVYFCARGVYGGFAGGYFDFWGQGTLVTVSS
VL: DIQMTQSPSSLSASVGDRVTITCKASQNIYKNLAWYQQKPGKAPKLLIYDANTLQTGVPSRFSGSGSGSDFTLTISSLQPEDFATYFCQQYYSGWAFGQGTKVEIKR
notes: Humanized IgG1/kappa (hH02 + hL02); also called humanized hG019 antibody H02L02
B4: H01L02 antibody (antibody, human IgG1, kappa, V domains shown)
VH: B3 VH with N61A, R74T, F95Y
VL: B3 VL
notes: Humanized IgG1/kappa (hH01 + hL02); also called humanized hG019 antibody H01L02; labeled H01L02
B5: H04L02 antibody (antibody, human IgG1, kappa, V domains shown)
VH: B3 VH with E1Q, V37I, N61A, I70L, F95Y
VL: B3 VL
notes: Humanized IgG1/kappa (hH04 + hL02); also called humanized hG019 antibody H04L02
B6: H02L03 antibody (antibody, human IgG1, kappa, V domains shown)
VH: B3 VH
VL: B3 VL with P40L, K42E, A43G, S69T, F87Y
notes: Humanized IgG1/kappa (hH02 + hL03); also called humanized hG019 antibody H02L03
B7: rG019 antibody (antibody, V domains shown)
VH: QVQLQQSGAELVKPGSSVKISCKASGYTFTRNFMHWIKQQPGNGLEWIGWIYCGDGETEYNQKFNGKATLTADRSSSTAYMELSRLTSEDSAVYFCARGVYGGFAGGYFDFWGQGVMVTVSS
VL: DIQMTQSPSLLSASVGDRVTLNCKASQNIYKNLAWYQQKLGEGPKLLIYDANTLQTGIPSRFSGSGSGSDFTLTISSLQPEDVATYFCQQYYSGWAFGGVTNLELKRA
notes: Rat monoclonal purified from hybridoma; also called rat anti-CDH6 monoclonal antibody clone rG019
B8: rG056 antibody (antibody, V domains shown)
VH: EVQLQESGPGLVKPSQSLSLTCSVTDYSITTYFWGWIRKFPGNKMEWMGYMSYRGGTSYNPSLKSRISITRDTSKNQFFLQLNSVTTEDTATYYCARCPNYGGHSLVFDYWGQGVMVTVSS
VL: DVQMTQSPSSLAASPGESVSISCRATKSIGIYLAWYQQKPGKTFKLLIYSGSTLQSGTPSRFSGSGSGTDFTLTIRSLEPEDFGLYFCQQFYENPFTFGSGTKLEIRR
notes: Rat monoclonal purified from hybridoma; also called rat anti-CDH6 monoclonal antibody clone rG056

Legend:
[1] = molecular target: T1, human CDH6 (full-length, on cells); assay: flow cytometry; hCDH6-transfected 293T cells (open) vs untransfected control cells (shaded); antibody 10 ng/mL; anti-rat IgG-FITC
Experimental: The human CDH6-binding activity of the rat anti-CDH6 antibody produced in Example 1)-7 was evaluated by flow cytometry. […] The cells were cultured overnight under conditions of 37° C. and 5% CO₂, and thereafter, a cell suspension was prepared. […] Thereafter, the cells were suspended by the addition of each of the 4 rat anti-CDH6 monoclonal antibodies (clone Nos: rG019, rG055, rG056 and rG061), which had been prepared in Example 1)-7, or rat IgG control (R&D Systems, Inc.) (final concentration: 10 ng/mL). The cells were left standing at 4° C. for 1 hour. The cells were washed twice with PBS supplemented with 5% FBS, and then suspended by the addition of Anti-Rat IgG (whole molecule)-FITC antibody produced in rabbit (Sigma-Aldrich Co. LLC) that had been 50-fold diluted with PBS supplemented with 5% FBS. The cells were left standing at 4° C. for 1 hour. The cells were washed twice with PBS supplemented with 5% FBS, followed by detection using a flow cytometer (FC500; Beckman Coulter, Inc.). The data was analyzed using FlowJo (Tree Star, Inc.). In the histogram of FIG. 1, the abscissa depicts FITC fluorescence intensity indicating the amount of the antibody bound, and the ordinate depicts a cell count. […] The rat IgG control binds to neither of the cells.

[2] = molecular target: T2, Recombinant Human CDH6 Fc His chimera …; assay: SPR (Biacore T200), antigen captured by anti-His antibody, antibody as analyte, steady state affinity model
Experimental: The dissociation constant between the antibody and the antigen (Recombinant Human CDH6 Fc His chimera, R&D Systems, Inc.) was measured by using Biacore T200 (GE Healthcare Biosciences Corp.), according to a capture method, which comprises capturing the antigen as a ligand with the immobilized anti-His antibody and then measuring the dissociation constant using an antibody as an analyte. Approximately 1000 RU of the anti-histidine antibody (His capture kit, GE Healthcare Biosciences Corp.) was covalently bound to sensor chip CM5 (GE Healthcare Biosciences Corp.) by the amine coupling method. The antibody was also immobilized onto reference cells in the same manner as above. HBS-P+ (10 mM HEPES pH 7.4, 0.15 M NaCl, 0.05% Surfactant P20) supplemented with 1 mM CaCl₂ was used as a running buffer. The antigen was added onto the anti-histidine antibody-immobilized chip for 60 seconds, and a dilution series solution (0.391 to 100 nM) of the antibody was then added at a flow rate of 30 μl/min for 300 seconds. Subsequently, the dissociation phase was monitored for 600 seconds. As a regeneration solution, a glycine solution (pH 1.5) supplemented with 5 M MgCl2 was added twice at a flow rate of 10 μl/min for 30 seconds. A Steady State Affinity model in analysis software (BIAevaluation software, version 4.1) was used in data analysis, and the dissociation constant (KD) was calculated.

Row | Binder | binding result [1] | Kd [2] [nM]
1 | B1 | binds | 
2 | B2 | binds | 
3 | B3 |  | 1.1
4 | B4 |  | 1.5
5 | B5 |  | 1.1
6 | B6 |  | 1.4
7 | B7 | binds | 
8 | B8 | binds | 

— patent publication US20200171163A1 (Daiichi Sankyo, published 2020)
